{"source": "paper PMC11218510", "about": "“Functional analysis of the methylerythritol phosphate pathway terminal enzymes IspG and IspH from Zymomonas mobilis” (Microbiology Spectrum, 2024)", "target": "the molecule itself", "assay": "native gel or EMSA; 4%-16% Bis-Tris Native gel; 50 μM IspG, 50 μM IspH and a mixture of 25 μM each"}
{"protein": "Z. mobilis Strep-tag II IspG (enzyme, UniProt Q5NR50 1-377, looked up, IspG of Zymomonas mobilis ZM4; coding region amplified from genomic DNA; carries a [4Fe-4S] cluster (occupancy 5-10%); also called Z. mobilis IspG; ispGZM; source: E. coli PK13681 (BL21 (DE3) derivative) with pPK13651 (pET11a), purified anaerobically (Streptrap HP, PD-10 desalting); not shown: Strep-tag II, C-terminal, kept) MSIRPWRHIERRKSRKIMVGNVAVGGDAPISVQTMTNTPTVDAQATIAQIKRCEAVGVDLIRVSCPDKESTAALKDIVRAAEVPIIADIHFHYKRALEAADAGAACLRINPGNIGSSERVAEVVRAAKANGCAIRIGVNAGSLEKELLEKYGEPCPDALVESALNHIKLLQDQDFHEFKVAVKASDVFLAVASYKALAKAVDCPLHLGITEAGGLIGGTVKSALGIGNLLWDGIGDTLRVSLSADPEQEVRVGYDILKTLDLRTRGVRVVSCPSCARQGFDVVKTVKALEERLAHIATPISLSILGCVVNGPGEARETDIGVTGGGQGKHMVFLSGVTDHTVEDAKMLDHIVSLVEAKAAEIEAEKAKEKAATVAAE", "values": [{"measurement": "stoichiometry N", "result": 2}]}
